Results on one molecule are retold here after PMC4011921 (mAbs, 2014).

The target in one experiment is cynomolgus IL-6 (cynomolgus, UniProt P79341). Nature of the experiment: SPR. For orientation: In SPR one partner is held on a chip, and binding of the other changes the refractive index at the surface.
For the next experiment, the target named is human IL-6 (Homo sapiens, UniProt P05231). The experiment in a line: SPR.
human IL-6, sequence (P05231 30-212): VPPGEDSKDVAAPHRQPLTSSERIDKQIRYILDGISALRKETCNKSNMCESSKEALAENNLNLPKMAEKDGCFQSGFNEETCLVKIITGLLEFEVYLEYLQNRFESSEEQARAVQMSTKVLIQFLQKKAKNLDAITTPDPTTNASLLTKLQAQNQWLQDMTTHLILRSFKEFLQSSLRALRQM

cynomolgus IL-6, sequence (P79341 28-212): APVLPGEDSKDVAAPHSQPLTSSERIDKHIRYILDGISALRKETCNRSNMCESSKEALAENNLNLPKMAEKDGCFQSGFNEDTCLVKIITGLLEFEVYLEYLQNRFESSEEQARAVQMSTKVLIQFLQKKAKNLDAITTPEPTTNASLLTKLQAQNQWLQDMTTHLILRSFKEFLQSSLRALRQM

B1: olokizumab (antibody, V domains shown)
VH: EVQLVESGGGLVQPGGSLRLSCAASGFNFNDYFMNWVRQAPGKGLEWVAQMRNKNYQYGTYYAESLEGRFTISRDDSKNSLYLQMNSLKTEDTAVYYCARESYYGFTSYWGQGTLVTVSS
VL: DIQMTQSPSSLSASVGDRVTITCQASQDIGISLSWYQQKPGKAPKLLIYNANNLADGVPSRFSGSGSGTDFTLTISSLQPEDFATYYCLQHNSAPYTFGQGTKLEIK
What is called Kd is the concentration at which binding is half-saturated. As to B1, the binding result in the experiment with cynomolgus IL-6 is listed as “binds”. The Kd with human IL-6 turned out to be 0.01 nM.
